We go through 2 molecules from publication PMC10975569.

For assay [1], the target named is heterolysin A (H. irregulare TC 32-1).
Assay [2] deals with T1, ostreolysin A6 (P. ostreatus) (UniProt P83467).
T1 sequence: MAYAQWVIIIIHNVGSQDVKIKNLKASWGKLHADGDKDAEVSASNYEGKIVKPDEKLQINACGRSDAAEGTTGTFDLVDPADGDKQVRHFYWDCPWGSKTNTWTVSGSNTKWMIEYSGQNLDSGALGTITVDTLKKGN

In the assay with nudolysin A (L. nuda), “nudolysin B (Δ30NudB) (domain or fragment)” gave a time of 100% hemolysis of bovine red blood cells, pH 6.0; NudA 1, 0.1 and 0.01 µM, NudA:NudB 10:1 (0.7 to 48.8 min) of 48.8 min; a time of 100% hemolysis of bovine red blood cells, pH 7.0; NudA 1 and 0.1 µM, NudA:NudB 10:1 (0.7 to 11.1 min); at 0.01 µM 100% hemolysis did not occur of 11.1 min; a time of 100% hemolysis of bovine red blood cells, pH 8.0; NudA 1 µM, NudA:NudB 10:1; at 0.1 and 0.01 µM 100% hemolysis did not occur of 2 min.

B1: pleurotolysin B (Δ48PlyB) (domain or fragment)
chain: SQAGDTLNDVIQDPTRRNKLINDNNLLKGIIMGRDGPVPSSRELIVRPDTLRAIINNRATIETTTMEAEFTETLMESNYNSASVKVSAPFITANSEYSESSSFKNTETEKSMYTSSRYLFPQGRIDFTTPDSGFDDVIKLSPQFTSGVQAALAKATGTEKREALQNLFQEYGHVFRTKVHIGGVLSAHTMETFSRSENETEVKQDVKAGLEGAVKGWGGGATAGHGNTQGTITTSQNRKLNVKYIVNGGDYTKIQNTEEWVASTNQSEHWRVIEVTEVTAVADLLPQPIRGQVKDLLKPLLGKWVDVEKVPGLESLPVSVYRPKGAIPAGWFWLGDTADASKALLVKPTLPARSGRNPALTSLHQGSGMTEQPFVDLPQYQYLSTYFGSFAHDTPPGSTLRGLRPDHVLPGRYEMHGDTISTAVYVTRPVDVPFPEDECFDLKSLVRVKLPGSGNPPKPRSALKKSMVLFDSGEK
In assay [1], B1 returned a time of 100% hemolysis of bovine red blood cells, pH 6.0; HetA 1, 0.1 and 0.01 µM, HetA:PlyB 10:1 (0.7 to 9.8 min) of 9.8 min; a time of 100% hemolysis of bovine red blood cells, pH 7.0; HetA 1 and 0.1 µM, HetA:PlyB 10:1 (1.3 to 8.2 min); at 0.01 µM 100% hemolysis did not occur of 8.2 min; a time of 100% hemolysis of bovine red blood cells, pH 8.0; HetA 1 and 0.1 µM, HetA:PlyB 10:1 (0.7 to 5.3 min); at 0.01 µM 100% hemolysis did not occur of 5.3 min. In assay [2], this molecule gave a time of 100% hemolysis of bovine red blood cells, pH 6.0; OlyA6 1, 0.1 and 0.01 µM, OlyA6:PlyB 10:1 (0.7 to 2.7 min) of 2.7 min; a time of 100% hemolysis of bovine red blood cells, pH 7.0; OlyA6 1, 0.1 and 0.01 µM, OlyA6:PlyB 10:1 (0.7 to 20.6 min) of 20.6 min; a time of 100% hemolysis of bovine red blood cells, pH 8.0; OlyA6 1, 0.1 and 0.01 µM, OlyA6:PlyB 10:1 (0.7 to 26.4 min) of 26.4 min.
